Measurements: article doi:10.1101/2023.09.29.560221 (bioRxiv, 2023)

T1: human Topoisomerase I (human, UniProt P11387 1-765)
T1 sequence: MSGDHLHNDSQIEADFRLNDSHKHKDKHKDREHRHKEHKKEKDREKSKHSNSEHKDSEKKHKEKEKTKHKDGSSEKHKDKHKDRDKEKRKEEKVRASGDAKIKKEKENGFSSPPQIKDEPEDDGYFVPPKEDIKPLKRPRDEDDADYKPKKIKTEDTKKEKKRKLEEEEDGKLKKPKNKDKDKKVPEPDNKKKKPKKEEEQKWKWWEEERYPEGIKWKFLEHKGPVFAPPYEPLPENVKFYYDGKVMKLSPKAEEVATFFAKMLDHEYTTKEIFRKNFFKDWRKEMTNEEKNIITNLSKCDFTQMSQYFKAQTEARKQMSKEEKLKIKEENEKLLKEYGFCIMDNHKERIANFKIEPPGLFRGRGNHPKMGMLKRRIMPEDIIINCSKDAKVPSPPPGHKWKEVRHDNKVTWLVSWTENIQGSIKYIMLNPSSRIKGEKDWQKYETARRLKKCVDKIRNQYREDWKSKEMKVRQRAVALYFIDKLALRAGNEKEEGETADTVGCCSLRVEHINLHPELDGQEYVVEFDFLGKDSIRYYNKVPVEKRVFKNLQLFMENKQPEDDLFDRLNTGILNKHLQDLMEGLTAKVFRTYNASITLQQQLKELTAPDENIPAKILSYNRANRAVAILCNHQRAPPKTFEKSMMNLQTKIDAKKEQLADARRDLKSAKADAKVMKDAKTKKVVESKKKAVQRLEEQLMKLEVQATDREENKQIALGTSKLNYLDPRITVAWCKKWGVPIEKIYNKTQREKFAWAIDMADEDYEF

B1: SV40 Large T-antigen (LT), wild type, purified from insect cells (natural protein)
chain: MDKVLNREESLQLMDLLGLERSAWGNIPLMRKAYLKKCKEFHPDKGGDEEKMKKMNTLYKKMEDGVKYAHQPDFGGFWDATEIPTYGTDEWEQWWNAFNEENLFCSEEMPSSDDEATADSQHSTPPKKKRKVEDPKDFPSELLSFLSHAVFSNRTLACFAIYTTKEKAALLYKKIMEKYSVTFISRHNSYNHNILFFLTPHRHRVSAINNYAQKLCTFSFLICKGVNKEYLMYSALTRDPFSVIEESLPGGLKEHDFNPEEAEETKQVSWKLVTEYAMETKCDDVLLLLGMYLEFQYSFEMCLKCIKKEQPSHYKYHEKHYANAAIFADSKNQKTICQQAVDTVLAKKRVDSLQLTREQMLTNRFNDLLDRMDIMFGSTGSADIEEWMAGVAWLHCLLPKMDSVVYDFLKCMVYNIPKKRYWLFKGPIDSGKTTLAAALLELCGGKALNVNLPLDRLNFELGVAIDQFLVVFEDVKGTGGESRDLPSGQGINNLDNLRDYLDGSVKVNLEKKHLNKRTQIFPPGIVTMNEYSVPKTLQARFVKQIDFRPKDYLKHCLERSEFLLEKRIIQSGIALLLMLIWYRPVAEFAQSIQSRIVEWKERLDKEFSLSVYQKMKFNVAMGIGVLDWLRNSDDDDEDSQENADKNEDGGEKNMEDSGHETGIDSQSQGSFQAPQSSQSVHDHNQPYHICRGFTCFKKPPTPPPEPET
B2: SV40 Large T-antigen T518D (phosphomimetic mutant), purified from insect cells (natural protein)
chain: MDKVLNREESLQLMDLLGLERSAWGNIPLMRKAYLKKCKEFHPDKGGDEEKMKKMNTLYKKMEDGVKYAHQPDFGGFWDATEIPTYGTDEWEQWWNAFNEENLFCSEEMPSSDDEATADSQHSTPPKKKRKVEDPKDFPSELLSFLSHAVFSNRTLACFAIYTTKEKAALLYKKIMEKYSVTFISRHNSYNHNILFFLTPHRHRVSAINNYAQKLCTFSFLICKGVNKEYLMYSALTRDPFSVIEESLPGGLKEHDFNPEEAEETKQVSWKLVTEYAMETKCDDVLLLLGMYLEFQYSFEMCLKCIKKEQPSHYKYHEKHYANAAIFADSKNQKTICQQAVDTVLAKKRVDSLQLTREQMLTNRFNDLLDRMDIMFGSTGSADIEEWMAGVAWLHCLLPKMDSVVYDFLKCMVYNIPKKRYWLFKGPIDSGKTTLAAALLELCGGKALNVNLPLDRLNFELGVAIDQFLVVFEDVKGTGGESRDLPSGQGINNLDNLRDYLDGSVKVNLEKKHLNKRDQIFPPGIVTMNEYSVPKTLQARFVKQIDFRPKDYLKHCLERSEFLLEKRIIQSGIALLLMLIWYRPVAEFAQSIQSRIVEWKERLDKEFSLSVYQKMKFNVAMGIGVLDWLRNSDDDDEDSQENADKNEDGGEKNMEDSGHETGIDSQSQGSFQAPQSSQSVHDHNQPYHICRGFTCFKKPPTPPPEPET

How the values were obtained:
[1] = target: T1, human Topoisomerase I; assay: ELISA
[2] = target: the molecule itself; assay: native gel or EMSA

Binder | binding result [1] | stoichiometry N [2]
B1 | binds | 
B2 | binds | 6
